# Experiments:
# HLA-B*15:01 = test: IEDB peptide-MHC binding, purified MHC/competitive/fluorescence; ≥ and ≤ were set here for values at or beyond the usual limits of such assays
# HLA-A*24:02 = test: as above
# HLA-A*03:01 [1] = test: as above
# HLA-A*11:01 = test: as above
# HLA-A*02:03 = test: IEDB peptide-MHC binding, purified MHC/competitive/radioactivity; filed as Kd, often an IC50 or EC50 that approximates it; ≥ and ≤ were set here for values at or beyond the usual limits of such assays
# HLA-A*02:17 = test: as above
# HLA-A*02:01 [2] = test: as above
# HLA-A*03:01 [3] = test: IEDB peptide-MHC binding, purified MHC/competitive/fluorescence; filed as Kd, often an IC50 or EC50 that approximates it; ≥ and ≤ were set here for values at or beyond the usual limits of such assays
# HLA-A*68:02 = test: IEDB peptide-MHC binding, purified MHC/competitive/radioactivity; filed as Kd, often an IC50 or EC50 that approximates it; ≥ and ≤ were set here for values at or beyond the usual limits of such assays
# HLA-A*02:02 = test: as above; conditions: source organism: Trypanosoma cruzi
# HLA-A*02:06 = test: as above
# HLA-A*02:01 [4] = test: IEDB peptide-MHC binding, purified MHC/competitive/fluorescence; ≥ and ≤ were set here for values at or beyond the usual limits of such assays
# HLA-A*69:01 = test: IEDB peptide-MHC binding, purified MHC/direct/fluorescence; filed as Kd, often an IC50 or EC50 that approximates it; ≥ and ≤ were set here for values at or beyond the usual limits of such assays; conditions: source organism: dengue virus type 3
# HLA-A*02:01 [5] = test: as above; conditions: source organism: Reston ebolavirus - Reston
# HLA-B*18:01 = test: IEDB peptide-MHC binding, purified MHC/competitive/fluorescence; filed as Kd, often an IC50 or EC50 that approximates it; ≥ and ≤ were set here for values at or beyond the usual limits of such assays; conditions: source organism: Reston ebolavirus - Reston (1989)
# HLA-B*27:03 = test: as above; conditions: source organism: Reston ebolavirus - Reston (1989)
# HLA-B*51:01 [6] = test: as above; conditions: source organism: Reston ebolavirus - Reston (1989)
# HLA-B*46:01 = test: as above; conditions: source organism: Reston ebolavirus - Reston (1989)
# HLA-B*39:01 = test: as above; conditions: source organism: Reston ebolavirus - Reston (1989)
# HLA-A*26:01 = test: as above; conditions: source organism: Reston ebolavirus - Reston (1989)
# HLA-B*57:01 = test: as above; conditions: source organism: Reston ebolavirus - Reston (1989)
# HLA-B*07:02 = test: IEDB peptide-MHC binding, purified MHC/competitive/radioactivity; filed as Kd, often an IC50 or EC50 that approximates it; ≥ and ≤ were set here for values at or beyond the usual limits of such assays
# HLA-B*53:01 = test: as above; conditions: source organism: SARS coronavirus Tor2
# HLA-B*35:01 = test: as above; conditions: source organism: SARS coronavirus Tor2
# HLA-B*51:01 [7] = test: as above; conditions: source organism: SARS coronavirus Tor2
# HLA-B*54:01 = test: as above; conditions: source organism: SARS coronavirus Tor2
# [8] = source organism: Zaire ebolavirus
# [9] = source organism: Dengue virus 3 Sri Lanka/1266/2000
# [10] = source organism: Vaccinia virus
# [11] = source organism: Trypanosoma cruzi
# [12] = source organism: Dengue virus 4 Philippines/H241/1956
# [13] = source organism: Vaccinia virus Copenhagen
# [14] = source organism: Dengue virus 1 Brazil/97-11/1997
# [15] = source organism: Dengue virus 1 Singapore/S275/1990
# [16] = source organism: Dengue virus 2 Jamaica/1409/1983
# [17] = source organism: Dengue virus 3 Martinique/1243/1999
sequence,measurement,setting,value
AQREIFSAW,IC50,HLA-B*15:01; source organism: Variola virus,6520 nM
same,IC50,HLA-A*24:02; source organism: Variola virus,38.6 nM
CAGDFAFHK,IC50,HLA-A*03:01 [1]; [8],63900 nM
same,IC50,HLA-A*11:01; [8],1390 nM
CLMMILPAAL,Kd,HLA-A*02:03; [9],39 nM
same,Kd,HLA-A*02:17; [9],170 nM
same,Kd,HLA-A*02:01 [2]; [9],15.4 nM
CLRIPMTDH,Kd,HLA-A*03:01 [3]; source organism: Listeria monocytogenes EGD-e,≥ 20000 nM
DLYEEEMREL,Kd,HLA-A*68:02; source organism: Homo sapiens,13500 nM
EKSSKYYIK,IC50,HLA-A*11:01; [10],≥ 79000 nM
same,IC50,HLA-A*24:02; [10],≥ 145000 nM
FLHKRFTLV,Kd,HLA-A*02:03; [11],0.116 nM
same,Kd,HLA-A*02:02,0.256 nM
same,Kd,HLA-A*02:06; [11],1.37 nM
same,Kd,HLA-A*68:02; [11],1310 nM
same,Kd,HLA-A*02:01 [2]; [11],0.614 nM
FLMVLLIPEP,Kd,HLA-A*02:17; [12],≥ 44700 nM
same,Kd,HLA-A*02:01 [2]; [12],31.4 nM
GAMVEYVSA,IC50,HLA-B*15:01; [13],25500 nM
same,IC50,HLA-A*02:01 [4]; [13],33400 nM
GISRNTVKR,Kd,HLA-A*03:01 [3]; source organism: Escherichia coli 536,≥ 20000 nM
GMFRTVGQL,Kd,HLA-A*68:02; source organism: Homo sapiens,≥ 60000 nM
IIFILLMLV,Kd,HLA-A*02:03; [14],217 nM
same,Kd,HLA-A*02:06; [14],1170 nM
same,Kd,HLA-A*02:17; [15],328 nM
same,Kd,HLA-A*02:01 [2]; [15],43.7 nM
IIHDFVDKT,IC50,HLA-A*02:01 [4]; [8],14100 nM
same,IC50,HLA-A*11:01; [8],≥ 148000 nM
same,IC50,HLA-A*24:02; [8],≥ 287000 nM
ILIGVIITWI,Kd,HLA-A*02:17; [16],17600 nM
same,Kd,HLA-A*02:01 [2]; [16],91.5 nM
ILTDGPERV,Kd,HLA-A*69:01,≥ 20000 nM
same,Kd,HLA-A*02:03; [17],130 nM
same,Kd,HLA-A*02:17; source organism: Dengue virus 3 China/80-2/1980,8970 nM
KAALSSLAK,IC50,HLA-A*03:01 [1]; [8],5420 nM
same,IC50,HLA-B*15:01; [8],≥ 110000 nM
same,IC50,HLA-A*11:01; [8],483 nM
KLSLTKLFS,IC50,HLA-A*03:01 [1]; source organism: Variola virus,33600 nM
same,IC50,HLA-A*02:01 [4]; source organism: Variola virus,2940 nM
KLSYRNKPS,IC50,HLA-A*03:01 [1]; [10],≥ 282000 nM
same,IC50,HLA-A*02:01 [4]; [10],≥ 196000 nM
KMARAGLGK,Kd,HLA-A*03:01 [3]; source organism: Burkholderia vietnamiensis G4,20.2 nM
KVHAVLTEK,Kd,HLA-A*03:01 [3]; source organism: Vibrio parahaemolyticus K5030,20.6 nM
LAIPPTAGV,Kd,HLA-A*68:02; [17],3.16 nM
LFGIKCIKK,IC50,HLA-A*03:01 [1]; [10],31700 nM
same,IC50,HLA-A*11:01; [10],8170 nM
LIMEFNSLL,Kd,HLA-A*02:01 [5],5.2 nM
same,Kd,HLA-B*18:01,≥ 20000 nM
same,Kd,HLA-B*27:03,≥ 20000 nM
same,Kd,HLA-B*51:01 [6],≥ 20000 nM
same,Kd,HLA-B*46:01,≥ 20000 nM
same,Kd,HLA-B*39:01,≥ 20000 nM
same,Kd,HLA-A*26:01,≥ 20000 nM
same,Kd,HLA-B*57:01,≥ 20000 nM
LLILCVTQV,Kd,HLA-A*02:03; [16],7.56 nM
same,Kd,HLA-A*02:17; [16],5970 nM
same,Kd,HLA-A*02:01 [2]; [16],27.2 nM
LMMILPAALA,Kd,HLA-A*02:03; [9],98.8 nM
same,Kd,HLA-A*02:17; [9],1840 nM
same,Kd,HLA-A*02:01 [2]; [9],11 nM
LQLPRDRFK,IC50,HLA-A*03:01 [1]; [8],5420 nM
same,IC50,HLA-A*11:01; [8],1760 nM
MMYTVSLGH,Kd,HLA-A*03:01 [3]; source organism: Vibrio parahaemolyticus AQ3810,1.2 nM
MPNMLRIMA,Kd,HLA-B*07:02; source organism: SARS coronavirus Tor2,9.8 nM
same,Kd,HLA-B*53:01,27 nM
same,Kd,HLA-B*35:01,11.7 nM
same,Kd,HLA-B*51:01 [7],393 nM
same,Kd,HLA-B*54:01,0.256 nM
MVSILASSL,Kd,HLA-B*07:02; [16],1010 nM
same,Kd,HLA-A*68:02; [16],134 nM
MVTRFESLK,Kd,HLA-A*03:01 [3]; source organism: Influenza A virus (A/Swine/Minnesota/55551/2000(H1N2)),163 nM
NTTGKLIWK,IC50,HLA-A*03:01 [1]; [8],24700 nM
same,IC50,HLA-A*11:01; [8],1040 nM
PSVIEEWKK,IC50,HLA-A*11:01; source organism: Vaccinia virus WR,≥ 107000 nM

# — the Immune Epitope Database (IEDB)
